Molecular target: His6-tagged monovalent streptavidin (UniProt P22629)
Experiment: pull-down

percent of the Dicer sample retained on the Ni column with His6-streptavidin: 60%
Substance: C-terminal AviTag Dicer, biotinylated (from UniProt Q9UPY3 1-1922) (enzyme)

Source: article PMC3535077
